Consider 2 variants from IntAct's records for PubMed 29374162.

B1: Interleukin-3 receptor subunit alpha (Homo sapiens), P26951-1 (parent)
chain: MVLLWLTLLLIALPCLLQTKEDPNPPITNLRMKAKAQQLTWDLNRNVTDIECVKDADYSMPAVNNSYCQFGAISLCEVTNYTVRVANPPFSTWILFPENSGKPWAGAENLTCWIHDVDFLSCSWAVGPGAPADVQYDLYLNVANRRQQYECLHYKTDAQGTRIGCRFDDISRLSSGSQSSHILVRGRSAAFGIPCTDKFVVFSQIEILTPPNMTAKCNKTHSFMHWKMRSHFNRKFRYELQIQKRMQPVITEQVRDRTSFQLLNPGTYTVQIRARERVYEFLSAWSTPQRFECDQEEGANTRAWRTSLLIALGTLLALVCVFVICRRYLVMQRLFPRIPHMKDPIGDSFQNDKLVVWEAGKAGLEECLVTEVQVVQKT
partner: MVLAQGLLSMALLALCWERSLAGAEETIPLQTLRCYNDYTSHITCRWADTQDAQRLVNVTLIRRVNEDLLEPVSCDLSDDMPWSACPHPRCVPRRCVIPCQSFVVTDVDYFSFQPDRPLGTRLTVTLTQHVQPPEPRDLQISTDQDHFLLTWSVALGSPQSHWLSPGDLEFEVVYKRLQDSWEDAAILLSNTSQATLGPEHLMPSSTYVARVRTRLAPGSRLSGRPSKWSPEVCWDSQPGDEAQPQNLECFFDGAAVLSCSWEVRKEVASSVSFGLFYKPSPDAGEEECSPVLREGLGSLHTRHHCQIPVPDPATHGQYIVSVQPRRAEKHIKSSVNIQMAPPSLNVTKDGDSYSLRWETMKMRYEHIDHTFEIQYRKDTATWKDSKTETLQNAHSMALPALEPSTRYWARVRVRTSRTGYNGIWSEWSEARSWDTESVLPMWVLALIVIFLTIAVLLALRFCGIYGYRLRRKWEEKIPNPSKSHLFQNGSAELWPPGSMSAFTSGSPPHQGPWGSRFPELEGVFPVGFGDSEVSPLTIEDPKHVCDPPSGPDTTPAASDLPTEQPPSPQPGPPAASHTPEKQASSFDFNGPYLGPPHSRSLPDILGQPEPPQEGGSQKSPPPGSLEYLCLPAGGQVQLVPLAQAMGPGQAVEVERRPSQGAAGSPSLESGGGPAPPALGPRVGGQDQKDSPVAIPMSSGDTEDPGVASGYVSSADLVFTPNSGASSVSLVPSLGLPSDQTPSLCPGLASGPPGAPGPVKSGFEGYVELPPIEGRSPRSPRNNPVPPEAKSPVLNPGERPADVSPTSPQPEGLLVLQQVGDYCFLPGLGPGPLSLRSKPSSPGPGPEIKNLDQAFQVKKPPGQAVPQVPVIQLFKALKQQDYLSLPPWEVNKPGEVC

In this test the parent is B1. To be noted: with il3rb_human CSF2RB.
Consider D197L, for which the “effect of a mutation on the interaction” value is “with no effect”. The entry for C76A;C195A is “with no effect”.
